Data as given in the supplement of paper PMC10724198.
± gives the standard deviation of the averaged measurements.

Legend:
[1] = system: Saccharomyces cerevisiae; experiment: protein stability index of tFT-peptide fusion in deletion strain of DAS1 (PSI (0-1 scale)); higher = more stable (slower turnover)
Description: (§1)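 MPS profiling in S. cerevisiae of two library types built from selected 12-aa C-degron peptides (IN1, IN2, LN1, LN3, VN2, R1-R5, W1-W3, Atg1 and Rpa12 C-termini): saturation mutagenesis libraries and C-terminal +1 capping libraries (13 aa). Each peptide is fused to the C-terminus of a sfGFP-mCherry timer, after a GGGS linker. Cells are FACS-sorted into 8 mCherry/sfGFP bins and sequenced. PSI runs from 0 (unstable) to 1 (stable), measured once in wild type and in the das1Δ or doa10Δ background.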

[2] = system: Saccharomyces cerevisiae; experiment: protein stability index of tFT-peptide fusion in wild type (PSI (0-1 scale)); higher = more stable (slower turnover); settings: genetic background: wild type
Description: as §1

[3] = system: Saccharomyces cerevisiae; experiment: protein stability index of tFT-peptide fusion (C-terminal peptide) (PSI (0-1 scale)); higher = more stable (slower turnover); settings: temperature: 30 C
Description: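 MPS profiling in S. cerevisiae of the yeast C-terminome library: the last 12 aa of each annotated ORF are fused to the C-terminus of a sfGFP-mCherry timer, after a GGGS linker. Cells are FACS-sorted into 8 mCherry/sfGFP bins and deep-sequenced. PSI runs from 0 (unstable) to 1 (stable); wild type and das1Δ backgrounds, two technical replicates each.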

[4] = genetic background: das1 deletion
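For protein stability index of tFT-peptide fusion in deletion strain of DAS1 in this document: PSI is a weighted mean of each variant's read distribution over the sorted stability bins, computed only for variants having over 10 reads in total.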
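For protein stability index of tFT-peptide fusion in wild type in this document: PSI derived as read-weighted mean over the 8 sorting bins, only variants exceeding 10 total reads kept, mCherry placed adjacent to the peptide and sfGFP distal.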

Work on ADKRNHLIKLLN yielded a protein stability index [1] of 0.587 and a protein stability index [2] of 0.129.

Sequence AKILRQKMNHQN has a protein stability index [1] of 0.688 and a protein stability index [2] of 0.185.

With ANWRVGLWRGAS the protein stability index [1] was 0.685 and the protein stability index [2] was 0.498.

ARDRVGLWRGAS gave a protein stability index [1] of 0.716 and a protein stability index [2] of 0.575.

For ARKRVGLWRGAS, the protein stability index [1] was 0.691 and the protein stability index [2] was 0.517.

Sequence ARMRVGLWRGAS has a protein stability index [1] of 0.702 and a protein stability index [2] of 0.645.

Sequence ARSRVGLWRGAS has a protein stability index [1] of 0.698 and a protein stability index [2] of 0.591.

ARVRVGLWRGAS showed a protein stability index [1] of 0.694 and a protein stability index [2] of 0.599.

ARWDVGLWRGAS gave a protein stability index [1] of 0.729 and a protein stability index [2] of 0.543.

With ARWRGGLWRGAS the protein stability index [1] was 0.677 and the protein stability index [2] was 0.543.

Sequence ARWRPGLWRGAS has a protein stability index [1] of 0.679 and a protein stability index [2] of 0.668.

In the case of ARWRSGLWRGAS, the protein stability index [1] is reported as 0.676 and the protein stability index [2] is reported as 0.665.

Work on ARWRVGLPRGAS yielded a protein stability index [1] of 0.666 and a protein stability index [2] of 0.688.

ARWRVGLWRGASK gave a protein stability index [1] of 0.622 and a protein stability index [2] of 0.672.

ARWRVGLWRGAV gave a protein stability index [1] of 0.688 and a protein stability index [2] of 0.395.

ARWRVGLWRGFS gave a protein stability index [1] of 0.678 and a protein stability index [2] of 0.599.

Work on ARWRVGLWRGQS yielded a protein stability index [1] of 0.695 and a protein stability index [2] of 0.416.

In the case of ARWRVGLWRGWS, the protein stability index [1] is reported as 0.69 and the protein stability index [2] is reported as 0.668.

In the case of ARWRVGLWRLAS, the protein stability index [1] is reported as 0.672 and the protein stability index [2] is reported as 0.0888.

ARWRVGQWRGAS showed a protein stability index [1] of 0.682 and a protein stability index [2] of 0.614.

With ARWRVNLWRGAS the protein stability index [1] was 0.708 and the protein stability index [2] was 0.34.

ARWRVRLWRGAS showed a protein stability index [1] of 0.671 and a protein stability index [2] of 0.333.

For ARWRWGLWRGAS, the protein stability index [1] was 0.681 and the protein stability index [2] was 0.55.

With ASMRWTFRYWVN the protein stability index [1] was 0.602 and the protein stability index [2] was 0.0684.

ATSCGYKFRTNN gave a protein stability index [1] of 0.671 and a protein stability index [2] of 0.235.

Sequence CASCGYKFRTNN has a protein stability index [1] of 0.714 and a protein stability index [2] of 0.281.

CLSCGYKFRTNN showed a protein stability index [1] of 0.701 and a protein stability index [2] of 0.228.

With CTSCAYKFRTNN the protein stability index [1] was 0.665 and the protein stability index [2] was 0.172.

For CTSCDYKFRTNN, the protein stability index [1] was 0.689 and the protein stability index [2] was 0.556.

For CTSCGTKFRTNN, the protein stability index [1] was 0.693 and the protein stability index [2] was 0.552.

CTSCGWKFRTNN gave a protein stability index [1] of 0.673 and a protein stability index [2] of 0.306.

Sequence CTSCGYGFRTNN has a protein stability index [1] of 0.693 and a protein stability index [2] of 0.594.

CTSCGYKFRANN gave a protein stability index [1] of 0.698 and a protein stability index [2] of 0.538.

Sequence CTSCGYKFRNNN has a protein stability index [1] of 0.703 and a protein stability index [2] of 0.681.

With CTSCGYKFRTFN the protein stability index [1] was 0.712 and the protein stability index [2] was 0.335.

With CTSCGYKFRTNH the protein stability index [1] was 0.68 and the protein stability index [2] was 0.191.

In the case of CTSCGYKFRTNNM, the protein stability index [1] is reported as 0.69 and the protein stability index [2] is reported as 0.679.

Work on CTSCGYKFRTSN yielded a protein stability index [1] of 0.704 and a protein stability index [2] of 0.273.

Sequence CTSCGYKFRTVN has a protein stability index [1] of 0.705 and a protein stability index [2] of 0.15.

With CTSCGYKGRTNN the protein stability index [1] was 0.674 and the protein stability index [2] was 0.658.

Sequence CTSCGYKKRTNN has a protein stability index [1] of 0.692 and a protein stability index [2] of 0.474.

Sequence CTSCGYKNRTNN has a protein stability index [1] of 0.696 and a protein stability index [2] of 0.705.

CTSCGYKPRTNN was tested, and the protein stability index [1] was 0.683 and the protein stability index [2] was 0.693.

Sequence CTSCGYRFRTNN has a protein stability index [1] of 0.679 and a protein stability index [2] of 0.464.

In the case of CTSCKYKFRTNN, the protein stability index [1] is reported as 0.69 and the protein stability index [2] is reported as 0.376.

In the case of CTSCQYKFRTNN, the protein stability index [1] is reported as 0.689 and the protein stability index [2] is reported as 0.334.

CTSHGYKFRTNN gave a protein stability index [1] of 0.689 and a protein stability index [2] of 0.242.

Sequence CTSIGYKFRTNN has a protein stability index [1] of 0.695 and a protein stability index [2] of 0.153.

Work on CTSPGYKFRTNN yielded a protein stability index [1] of 0.686 and a protein stability index [2] of 0.254.

Work on CTSSGYKFRTNN yielded a protein stability index [1] of 0.634 and a protein stability index [2] of 0.413.

CTYCGYKFRTNN showed a protein stability index [1] of 0.705 and a protein stability index [2] of 0.269.

Sequence FGMRWTFRYWVN has a protein stability index [1] of 0.53 and a protein stability index [2] of 0.0525.

Work on FIMRWTFRYWVN yielded a protein stability index [1] of 0.251 and a protein stability index [2] of 0.0251.

In the case of FRWRVGLWRGAS, the protein stability index [1] is reported as 0.668 and the protein stability index [2] is reported as 0.0957.

With FSFRWTFRYWVN the protein stability index [1] was 0.54 and the protein stability index [2] was 0.089.

With FSLRWTFRYWVN the protein stability index [1] was 0.467 and the protein stability index [2] was 0.0436.

FSMHWTFRYWVN was tested, and the protein stability index [1] was 0.664 and the protein stability index [2] was 0.0392.

Work on FSMRATFRYWVN yielded a protein stability index [1] of 0.545 and a protein stability index [2] of 0.0843.

FSMRETFRYWVN was tested, and the protein stability index [1] was 0.596 and the protein stability index [2] was 0.048.

With FSMRTTFRYWVN the protein stability index [1] was 0.623 and the protein stability index [2] was 0.0969.

FSMRWFFRYWVN was tested, and the protein stability index [1] was 0.602 and the protein stability index [2] was 0.0657.

FSMRWTFKYWVN showed a protein stability index [1] of 0.485 and a protein stability index [2] of 0.0423.

FSMRWTFLYWVN showed a protein stability index [1] of 0.383 and a protein stability index [2] of 0.0672.

For YKSKRNTPTMLS [ISU1 C-terminal 12 aa], the protein stability index [3, 4] was 0.714 ± 0.027 and the protein stability index ([3]; genetic background: wild type) was 0.653 ± 0.026.

Work on “YLARRKPSIELR [YPR170W-B C-terminal 12 aa]” yielded a protein stability index [3, 4] of 0.716 ± 0.03 and a protein stability index ([3]; genetic background: wild type) of 0.7212 ± 0.0052.

With YLKNFFVKQKVV [ERP5 C-terminal 12 aa] the protein stability index [3, 4] was 0.549 ± 0.0073 and the protein stability index ([3]; genetic background: wild type) was 0.16 ± 0.026.

Sequence YLLENEPKDSFA [DCP1 C-terminal 12 aa] has a protein stability index [3, 4] of 0.703 ± 0.032 and a protein stability index ([3]; genetic background: wild type) of 0.731 ± 0.029.

For YLNCTEREALRP [AEP1 C-terminal 12 aa], the protein stability index [3, 4] was 0.6794 ± 0.0038 and the protein stability index ([3]; genetic background: wild type) was 0.752 ± 0.076.

Work on “YNIKRVLGVVYC [YAL067W-A C-terminal 12 aa]” yielded a protein stability index [3, 4] of 0.345 ± 0.031 and a protein stability index ([3]; genetic background: wild type) of 0.362 ± 0.0077.

Work on YNPGLSMDFLTA [BCD1 C-terminal 12 aa] yielded a protein stability index [3, 4] of 0.6899 ± 0.0018 and a protein stability index ([3]; genetic background: wild type) of 0.714 ± 0.014.

Sequence YNSLKKGASKSK [CNL1 C-terminal 12 aa] has a protein stability index [3, 4] of 0.714 ± 0.021 and a protein stability index ([3]; genetic background: wild type) of 0.74 ± 0.071.

In the case of YNTTSITNSTSW [SRL1 C-terminal 12 aa], the protein stability index [3, 4] is reported as 0.711 ± 0.016 and the protein stability index ([3]; genetic background: wild type) is reported as 0.722 ± 0.09.

In the case of YPGAKTLTYTSR [CMI8 C-terminal 12 aa], the protein stability index [3, 4] is reported as 0.703 ± 0.013 and the protein stability index ([3]; genetic background: wild type) is reported as 0.673 ± 0.01.

With YPTFDDNNFFAL [RFA2 C-terminal 12 aa] the protein stability index [3, 4] was 0.732 ± 0.012 and the protein stability index ([3]; genetic background: wild type) was 0.717 ± 0.0086.

For YSDEASAQKKRF [RPS2 C-terminal 12 aa], the protein stability index [3, 4] was 0.698 ± 0.0098 and the protein stability index ([3]; genetic background: wild type) was 0.709 ± 0.039.

Work on YTPDQGVSLIDL [ENT2 C-terminal 12 aa] yielded a protein stability index [3, 4] of 0.6978 ± 0.005 and a protein stability index ([3]; genetic background: wild type) of 0.7 ± 0.015.

For YTSWQTIKMWSQ [AVT3 C-terminal 12 aa], the protein stability index [3, 4] was 0.658 ± 0.007 and the protein stability index ([3]; genetic background: wild type) was 0.654 ± 0.029.

For YVPPPTYTEMAS [ART10 C-terminal 12 aa], the protein stability index [3, 4] was 0.7074 ± 0.0038 and the protein stability index ([3]; genetic background: wild type) was 0.66 ± 0.011.

For YVSHKGFITEDL [RPL9A C-terminal 12 aa], the protein stability index [3, 4] was 0.689 ± 0.055 and the protein stability index ([3]; genetic background: wild type) was 0.679 ± 0.035.
